US6350609B1, “Electrospraying for mass fabrication of chips and libraries” (New York University, priority 1997, dated 2002)
Several values for one entry are separate records, joined by “and”; a condition that tells them apart may be missing. Equal entries are not always repeated.

What was measured:
Cytochrome C (equine) = Cytochrome C (equine) (Equus caballus, UniProt P00004); assay: Mechano-chemical effect of a specific ligand on cross-linked protein film (isometric tension); format: biochemical; details: electrospray deposited, reduction with dithionite
Cytochrome C (equine), sequence (P00004 whole entry): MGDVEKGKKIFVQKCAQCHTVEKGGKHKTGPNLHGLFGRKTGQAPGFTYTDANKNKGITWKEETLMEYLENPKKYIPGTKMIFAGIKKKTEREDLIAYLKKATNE

[1] = target: T1, Alkaline phosphatase (AP) from bovine intestinal mucosa (Bos taurus, UniProt P19111); assay: Recovery of specific AP activity (pNPP) after electrospray deposition or drying; format: biochemical; details: for Activity % (ratio of specific activity of the electrospray-deposited AP to that in the initial solution): +(3-4) kV, 1-50 nA, 0.1 μL/min, tip distance 10 mm, humidity 65 ± 5%
T1 construct: purchased Sigma Chemical Co., St. Louis, Mo; host or cells: bovine intestinal mucosa
Text: Materials. Alkaline phosphatase (AP) from bovine intestinal mucosa, p-nitrophenyl phosphate (pNPP substrate table set, Sigma Fast), trehalose and sucrose were obtained from Sigma Chemical Co., St. Louis, Mo. All other salts and buffer reagents were of analytical grade.
Design of Capillaries for Electrospray. Three different designs of the electrospray capillaries have been tested throughout this study. A first design, shown in FIG. 20A, is similar to the “nanoelectrospray ion source” (Wilm et al., 1994 and 1996) with a silver layer plated on the external surface of the capillary instead of gold. Glass capillaries with sealed ends were first treated for 20 seconds with an electrodeless plasma discharge at reduced pressure (0.01 Torr, discharge power of 10-20 W, in a Pyrex class chamber, 0.25 L). After such plasma cleaning, the glass capillaries were activated in an acidified solution of SnCl2 and 50 g of HCl per 1 L), washed with water and covered with a silver “mirror” (Yampolskii et al., 1981). This design is referred to as a capillary with an external electrode.
A second design, shown in FIG. 20B, is a modification of an electrospray capillary described by the laboratory of the present inventors (Morozov et al., 1993). In this capillary metal electrode (tungsten or stainless steel wire) is not exposed to a gas phase, thus reducing the risk of cornea discharge at high voltages. This second design is referred to as a capillary with an inner electrode.
In a third design, of the capillary (referred to as a bridge capillary), contact of protein solutions with a metal electrode was completely avoided by introducing a liquid bridge between them. […] Since the cross-section of the external capillary 5 is more than ten times larger than that of the inner capillary 7, the conductivity of the external capillary exceeds […] the conductivity of the inner capillary, making most of the current go through the large external capillary 5, whereas the internal plastic capillary 7 is used to supply protein solution.
A microprocessor controlled syringe pump (Cole-Parmer, Niles, Ill.) in combination with a 10 μL Hamilton microsyringe was used to feed the electrospray capillaries. The flow rate was 6-9 μL/h, and the outer diameter of the capillary tips varied in different experiments between 50 and 100 μm.
Chamber with Controlled Humidity. To control humidity during electrospray experiments with enzymes and to protect protein samples from contamination with dust particles present in the ambient air, the electrospray deposition was performed in a small (0.5 L) nearly cubic acrylic box, schematically presented in FIG. 21. A glass window was glued to one side of the box to enable sharp observation of the electrospray torch and substrate under a stereo microscope. The humidity and temperature inside the chamber were measured with solid state digital sensors (Fisher) with 2-4% precision for humidity and 0.2° C. for temperature. To increase the rate of sensor response and to keep the same humidity in all parts of the chamber, the air was stirred with a small fan. Dry air from a tank or air bubbled through water was introduced into the chamber until the required humidity was reached. The fan was then stopped, and electrospray initiated. Occasionally, portions of dry or wet gas were added during the spray experiment if the humidity deviated by more than 3-5% from the required level.
Mass Measurements of the Electrospray-Deposited Proteins. A home-built Quartz Crystal Microbalance (QCM; Sauerbrey, 1959) was used to measure the mass of the electrospray-deposited protein. The microbalance was made of commercial AT-cut quartz crystals (12-17 MHz, with silver electrodes of 5 mm in diameter) after removal of their protective shells. QCM calibration was performed using 0.1% solution of sugar in water. […]

alkaline phosphatase = target: T2, alkaline phosphatase (Bos taurus, UniProt P19111); assay: Enzyme activity of electrospray-deposited alkaline phosphatase on nitrocellulose filter (BCIP/NBT substrate); format: biochemical; details: deposited through polypropylene mask onto wetted nitrocellulose filter; BCIP/NBT staining
T2 construct: purchased Sigma Chemical Company, St. Louis, Mo
Text: The electrospray conditions used in this example were similar to those used in Example 1.
Likewise, the membrane filters on which alkaline phosphatase was deposited was soaked in a standard alkaline phosphatase substrate (5-bromo-4-chloro-3-indolyl phosphate/nitro blue tetrazolium substrate system kit, Sigma, St. Louis, Mo.), resulting in the formation of an insoluble blue colored product of the alkaline phosphatase reaction, and the pattern was visualized as shown in FIG. 12B.

[2] = Engström, 1961; cited from earlier work
Bovine intestinal AP = Bovine intestinal AP (Bos taurus, UniProt P19111); details: McComb et al., 1979; cited from earlier work

Molecule | Effect in Electrospray Deposit Sample % (relative change in isometric tension) (Cytochrome C (equine)) | Activity % (ratio of specific activity of the electrospray-deposited AP to that in the initial solution) ([1]; Bridge Type capillary) | AP activity after electrospray deposition at high voltage and current ([1]; V>7-8 kV, I>500-1500 nA) | AP activity preserved upon drying ([1]; addition of 50% (w/w) of disaccharide (sucrose or trehalose)) | difference in specific AP activity of deposits made at low current before and after electrospray at 1500 nA from the same capillary ([1]; capillaries with internal and external electrodes) | Activity % (ratio of specific activity of the electrospray-deposited AP to that in the initial solution) ([1]; capillary with External Electrode) | Activity % (ratio of specific activity of the electrospray-deposited AP to that in the initial solution) ([1]; capillary with Internal Electrode) | AP inactivation upon electrospray deposition ([1]; capillary with internal electrode, humidity A=65%, currents not exceeding 50 nA) | decrease of AP activity upon electrospray deposition under low humidity ([1]; rapid drying of droplets in gas phase, low humidity, +4 kV, internal electrode, 10-50 nA, 6 μL/h) | AP inactivation upon electrospray deposition ([1]; the two other capillary designs (external electrode, bridge), similar currents and humidity) | enzymatic activity after electrospray deposition (alkaline phosphatase) | pI [2] | pH of exposure causing irreversible inactivation (Bovine intestinal AP)
O=S(O)S(=O)O [dithionite] | −41% and −49% |  |  |  |  |  |  |  |  |  |  |  | 
AP: Alkaline phosphatase (AP) from bovine intestinal mucosa, Sigma (protein, UniProt P19111 20-506, looked up) Intestinal-type alkaline …: LVPVEEEDPAFWNRQAAQALDVAKKLQPIQTAAKNVILFLGDGMGVPTVTATRILKGQMNGKLGPETPLAMDQFPYVALSKTYNVDRQVPDSAGTATAYLCGVKGNYRTIGVSAAARYNQCKTTRGNEVTSVMNRAKKAGKSVGVVTTTRVQHASPAGAYAHTVNRNWYSDADLPADAQMNGCQDIAAQLVNNMDIDVILGGGRKYMFPVGTPDPEYPDDASVNGVRKRKQNLVQAWQAKHQGAQYVWNRTALLQAADDSSVTHLMGLFEPADMKYNVQQDHTKDPTLQEMTEVALRVVSRNPRGFYLFVEGGRIDHGHHDDKAYMALTEAGMFDNAIAKANELTSELDTLILVTADHSHVFSFGGYTLRGTSIFGLAPSKALDSKSYTSILYGNGPGYALGGGSRPDVNDSTSEDPSYQQQAAVPQASETHGGEDVAVFARGPQAHLVHGVEEETFVAHIMAFAGCVEPYTDCNLPAPTTATSIPD |  | 31 ± 12% | loses nearly all of its activity | 100% | no notable difference | 32 ± 9% | 55 ± 10% | approximately 45% | 30% | 70% | retained | 4.4 | 4.5-5.0
